Source: the supplement of paper PMC7877785
± gives the uncertainty stated by the source.

Assay: self-splicing fitness, log relative to wild type (ln ratio); higher = more splicing; Tetrahymena group I intron in knt gene, E. coli kanamycin selection, DiMSum; sequences stand for … in CUCUCU…GGAGGGAAAAGUUAUCAGGCAUGCACCUGGUAGCUAGUCUUUAAACCAAUAGAUUGCAUCGGUUUAAAAGGCAAGACCGUCAAAUUGCGGGAAAGGGGUCAACAGCCGUUCAGUACCAAGUCUCAGGGGAAACUUUGAGAUGGCCUUGCAAAGGGUAUGGUAAUAAGCUGACGGACAUGGUCCUAACCACGCAGCCAAGUCCUAAGUCAACAGAUCUUCUGUUGAUAUGGAUGCAGUUCACAGACUAAAUGUCGGUCGGGGAAGAUGUAUUCUUCUCAUAAGAUAUAGUCGGACCUCUCCUUAAUGGGAGCUAGCGGAUGAAGUGAUGCAACACUGGAGCCGCUGGGAACUAAUUUGUAUGCGAAAGUAUAUUGAUUAGUUUUGGAGUACUCGUGGUCG
In short: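 DiMSum derived fitness as the error-weighted combination of fold changes across replicates, kanamycin versus no kanamycin, normalised to wild type. E. coli BL21(DE3) held the library, which randomised all eight P1ex-region intron nucleotides within the knt kanamycin-resistance gene on pET-22b(+). Six replicate transformations grew overnight at 37°C or 30°C on LB agar with or without 25 μg/mL kanamycin, also containing 100 μg/mL carbenicillin, 50 μM IPTG and 0.2% rhamnose, and pooled colonies were amplicon-sequenced on an Illumina HiSeq 2500.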

Sequence	self-splicing fitness (ln) (30 °C)	self-splicing fitness (ln) (37 °C)
GAUCAGCAAUAUUACGUGGU	-4.81 ± 0.27	-2.15 ± 0.13
ACGCAGCAAUAUUACGGUGA	-1.39 ± 0.05	0.18 ± 0.063
UGCCAGCAAUAUUACGCUGA	-3.01 ± 0.19	-2.21 ± 0.21
AUAUAGCAAUAUUACGUGCC	-1.82 ± 0.38	-1.01 ± 0.41
ACGGAGCAAUAUUACGUGGC	-4.63 ± 0.42	–
GAUCAGCAAUAUUACGAAUG	-1.15 ± 0.075	-0.0569 ± 0.11
AGUAAGCAAUAUUACGGUCA	-0.817 ± 0.074	0.0737 ± 0.081
UGCCAGCAAUAUUACGCGCC	-1.15 ± 0.17	-0.705 ± 0.23
GUGUAGCAAUAUUACGCGAU	-3.21 ± 0.26	-1.96 ± 0.26
CCCCAGCAAUAUUACGAUCA	-1.97 ± 0.12	-2.68 ± 0.23
CGCCAGCAAUAUUACGUCCU	-4.8 ± 0.36	-2.45 ± 0.31
AGCUAGCAAUAUUACGUCAA	-4.05 ± 0.41	-2 ± 0.16
AAUAAGCAAUAUUACGCCGG	-1.87 ± 0.13	-1.07 ± 0.18
CUUCAGCAAUAUUACGUAAA	-3.05 ± 0.15	-2.12 ± 0.19
CUCCAGCAAUAUUACGUUUA	-3.31 ± 0.27	-2.27 ± 0.18
UGUAAGCAAUAUUACGACCU	-0.205 ± 0.13	-0.0468 ± 0.12
UACUAGCAAUAUUACGUUCC	-2.22 ± 0.32	-2.33 ± 0.35
GAACAGCAAUAUUACGCCUC	-1.81 ± 0.17	-1.89 ± 0.26
CCCUAGCAAUAUUACGUACG	-2.86 ± 0.18	-2.81 ± 0.27
AUUUAGCAAUAUUACGUAGG	-2.98 ± 0.14	-2.02 ± 0.16
AGCGAGCAAUAUUACGCACU	-1.62 ± 0.2	-1.37 ± 0.29
CCCAAGCAAUAUUACGUGCA	-3.83 ± 0.23	-2.57 ± 0.16
GUUCAGCAAUAUUACGUGAU	-0.367 ± 0.049	0.43 ± 0.068
AGGUAGCAAUAUUACGCGUC	-2.763 ± 0.023	-1.57 ± 0.037
UCGAAGCAAUAUUACGCCCC	-1.87 ± 0.44	–

Sequence	self-splicing fitness (ln) (30 °C)	self-splicing fitness (ln) (37 °C)
GGAGAGCAAUAUUACGGUGG	-3.5 ± 0.28	-2.25 ± 0.23
CCAAAGCAAUAUUACGAAAU	-3.31 ± 0.19	-3.2 ± 0.28
CACCAGCAAUAUUACGCCCU	-4.12 ± 0.26	-0.642 ± 0.11
GUAUAGCAAUAUUACGGUGA	-2.53 ± 0.25	-0.645 ± 0.18
UAUAAGCAAUAUUACGUCGU	-2.37 ± 0.12	-1.69 ± 0.17
AAGUAGCAAUAUUACGGAGG	-3.89 ± 0.33	-2.5 ± 0.33
AGGGAGCAAUAUUACGCCAG	-1.99 ± 0.24	-2.14 ± 0.34
ACCCAGCAAUAUUACGGUUU	-0.863 ± 0.041	0.0681 ± 0.056
CUACAGCAAUAUUACGAGUG	-0.714 ± 0.047	-0.418 ± 0.068
AGCAAGCAAUAUUACGCGGC	-3.39 ± 0.34	-1.82 ± 0.19
AUGAAGCAAUAUUACGCGAG	-0.689 ± 0.09	-0.225 ± 0.099
CUUUAGCAAUAUUACGCACC	-2.92 ± 0.43	–
ACUGAGCAAUAUUACGAAGA	-2.33 ± 0.22	-1.64 ± 0.2
CCAUAGCAAUAUUACGUAUA	-3.89 ± 0.3	-1.46 ± 0.17
UCGGAGCAAUAUUACGACGA	-1.41 ± 0.14	-1.32 ± 0.16
CCAGAGCAAUAUUACGCACC	–	-2.37 ± 0.34
CGCUAGCAAUAUUACGUGCC	-1.58 ± 0.11	-0.959 ± 0.15
UGAUAGCAAUAUUACGGCUU	-1.2 ± 0.19	0.584 ± 0.17
ACAAAGCAAUAUUACGGCUU	-0.982 ± 0.084	-0.814 ± 0.12
UGCAAGCAAUAUUACGUAAG	-2.75 ± 0.13	-2.64 ± 0.2
GGACAGCAAUAUUACGGAUA	-1.13 ± 0.11	-1.51 ± 0.093
UAAAAGCAAUAUUACGAAUU	-3.12 ± 0.15	-1.95 ± 0.18
GCCAAGCAAUAUUACGGGCC	–	-2.13 ± 0.32
GCAUAGCAAUAUUACGCUGU	-3.06 ± 0.17	-1.69 ± 0.23
CGGCAGCAAUAUUACGCACC	-2.89 ± 0.17	-2.05 ± 0.23

Sequence	self-splicing fitness (ln) (30 °C)	self-splicing fitness (ln) (37 °C)
GUUCAGCAAUAUUACGCAAG	-0.984 ± 0.093	-0.654 ± 0.12
GUGGAGCAAUAUUACGCGAA	-3 ± 0.39	-1.09 ± 0.27
UCCCAGCAAUAUUACGUAAA	-0.605 ± 0.065	0.00983 ± 0.085
CUGCAGCAAUAUUACGAUGC	-3.13 ± 0.24	-1.92 ± 0.43
AAAUAGCAAUAUUACGCCUA	-0.886 ± 0.13	-0.23 ± 0.13
ACCAAGCAAUAUUACGCCGC	-3.04 ± 0.24	-0.837 ± 0.18
CAUGAGCAAUAUUACGGAGU	-4.1 ± 0.4	-3.1 ± 0.31
CGUUAGCAAUAUUACGUUUG	-1.01 ± 0.08	-0.558 ± 0.1
GGUAAGCAAUAUUACGCGAC	-2.04 ± 0.16	-1.19 ± 0.2
CUCAAGCAAUAUUACGAGGG	–	-2.8 ± 0.43
GUGUAGCAAUAUUACGACUA	-0.34 ± 0.11	0.0605 ± 0.12
GUGCAGCAAUAUUACGCUUG	-3.09 ± 0.21	-2.02 ± 0.27
CCUAAGCAAUAUUACGCAGU	-3.23 ± 0.19	-1.76 ± 0.19
CGCAAGCAAUAUUACGAAAC	-3.46 ± 0.37	-0.979 ± 0.12
UGAUAGCAAUAUUACGGUAA	–	-1.62 ± 0.35
AGAGAGCAAUAUUACGUCUA	-2.48 ± 0.35	-0.494 ± 0.26
CCUGAGCAAUAUUACGUGGA	-3.5 ± 0.2	-2.03 ± 0.18
UUCCAGCAAUAUUACGAACC	-2.74 ± 0.42	0.108 ± 0.43
UAUCAGCAAUAUUACGCGCU	-2.73 ± 0.21	-1.76 ± 0.23
UGUGAGCAAUAUUACGGCCA	-0.0854 ± 0.18	0.465 ± 0.34
GAGGAGCAAUAUUACGGAAC	-3.68 ± 0.44	-0.46 ± 0.28
GCGGAGCAAUAUUACGACAC	-0.913 ± 0.22	–
GCUUAGCAAUAUUACGGGGU	-2.56 ± 0.16	-2.55 ± 0.21
GCAUAGCAAUAUUACGAAAU	-1.98 ± 0.13	-1.31 ± 0.12
GGUUAGCAAUAUUACGAGUU	-1.87 ± 0.15	-0.221 ± 0.12

Sequence	self-splicing fitness (ln) (30 °C)	self-splicing fitness (ln) (37 °C)
CAAAAGCAAUAUUACGGACA	-2.21 ± 0.15	-1.64 ± 0.17
UAGCAGCAAUAUUACGGAUU	-3.22 ± 0.14	-1.08 ± 0.13
UUUAAGCAAUAUUACGUGAU	-2.59 ± 0.15	-1.67 ± 0.21
CCUGAGCAAUAUUACGCAUA	-3.03 ± 0.32	-2.83 ± 0.47
CAUUAGCAAUAUUACGUGUC	–	-2.18 ± 0.24
AACUAGCAAUAUUACGAAAG	-2.79 ± 0.15	-1.61 ± 0.18
UAGUAGCAAUAUUACGACUA	-0.0384 ± 0.12	0.251 ± 0.12
CUUCAGCAAUAUUACGGUCU	-2.93 ± 0.15	-2.21 ± 0.2
CAUGAGCAAUAUUACGGUUU	-3.52 ± 0.2	-3.01 ± 0.24
AGCCAGCAAUAUUACGAGAC	-3.57 ± 0.18	-2.61 ± 0.16
UCGUAGCAAUAUUACGAAAC	–	-2.91 ± 0.38
CACGAGCAAUAUUACGUUCC	-2.89 ± 0.34	-2.15 ± 0.34
GAUAAGCAAUAUUACGGAUG	-2.76 ± 0.11	-1 ± 0.11
CCUGAGCAAUAUUACGUUCA	-3.2 ± 0.43	-2.59 ± 0.32
AAUGAGCAAUAUUACGGUGA	-3.31 ± 0.27	-2.26 ± 0.42
UUCCAGCAAUAUUACGCGAG	-0.566 ± 0.082	-0.29 ± 0.082
UUCCAGCAAUAUUACGUAUG	-3.02 ± 0.13	-1.38 ± 0.14
CUGCAGCAAUAUUACGAUAC	-2.99 ± 0.34	–
AUCCAGCAAUAUUACGAGCA	-1.14 ± 0.14	-1.1 ± 0.11
GAUUAGCAAUAUUACGCAAA	-2.19 ± 0.18	-2.24 ± 0.19
CAGGAGCAAUAUUACGGGAU	-3.55 ± 0.22	-2.28 ± 0.23
UUCUAGCAAUAUUACGGGUC	-3.23 ± 0.32	-1.94 ± 0.23
ACCCAGCAAUAUUACGCAUG	-4.1 ± 0.15	-2.58 ± 0.15
UUUCAGCAAUAUUACGAAAC	–	-2.53 ± 0.3
